From patent publication US20080260731A1 come the findings set out here.

The test has as its target human V158 FcγRIIIa (FcγR-His) (human) (UniProt P08637). As to the kind of experiment: Biacore SPR. On the technique in general: In SPR one partner is held on a chip, and binding of the other changes the refractive index at the surface.

Sequence of human V158 FcγRIIIa (FcγR-His) (human) (P08637 17-208 F176V limits assumed): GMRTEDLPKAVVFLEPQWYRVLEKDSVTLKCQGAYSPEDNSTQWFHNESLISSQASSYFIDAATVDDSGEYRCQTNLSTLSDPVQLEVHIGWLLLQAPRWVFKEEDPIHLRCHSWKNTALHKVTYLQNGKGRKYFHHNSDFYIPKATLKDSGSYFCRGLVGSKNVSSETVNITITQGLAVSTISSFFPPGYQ

“4G7 IgG1 antibody (chimeric, murine H0/L0 variable regions on human IgG1/kappa)” gave a Kd of 240 nM.

What is called Kd is a measure of binding affinity in units of concentration. The low end stands for higher affinity, the high end for lower affinity.
